# Where no end group is shown, it is not given here.
# B1: Phage-2980 (peptide)
# peptide: VEHWCRPEWMCAGF
# notes: It was tested as crude clonal phage supernatant; also called Peptide-180 library clone
# B2: Phage-2967 (peptide)
# peptide: GERYCVPAWMCAGL
# modifications: cysteine pairing not given here; also: peptide displayed as fusion to phage pIII
# notes: Clonal phage of the peptide-180 optimisation library, tested as crude phage supernatant; not shown: bacteriophage pIII coat protein to which the peptide is fused for display
# B3: Phage-2965 (peptide)
# peptide: LFKMCQPSWMCDGF
# modifications: cysteine pairing not given here; also: peptide displayed as fusion to phage pIII
# notes: as for B2
# B4: Phage-2992 (peptide)
# peptide: YEIRCEPKWMCMGF
# B5: Phage-2989 (peptide)
# peptide: TVVMCKPSWMCEGF
# notes: as for B1
# B6: Phage-2977 (peptide)
# peptide: TELRCVPSWMCTGF
# notes: as for B1
# B7: Phage-2985 (peptide)
# peptide: EEVYCVPKWMCLGF
# notes: as for B1
# B8: Phage-2979 (peptide)
# peptide: SEIACRPAWMCQWL
# notes: as for B1
# B9: Phage-2971 (peptide)
# peptide: DIPICRPQWMCIGF
# modifications: cysteine pairing not given here; also: peptide displayed as fusion to phage pIII
# notes: as for B2
# B10: Phage-2973 (peptide)
# peptide: VSPLCVPSWMCVGF
# modifications: cysteine pairing not given here; also: peptide displayed as fusion to phage pIII
# notes: as for B2
# B11: Phage-2962 (peptide)
# peptide: VQSLCVPYWMCTGF
# modifications: cysteine pairing not given here; also: peptide displayed as fusion to phage pIII
# notes: as for B2
# B12: Phage-2975 (peptide)
# peptide: GVPMCVPDWMCHGL
# modifications: cysteine pairing not given here; also: peptide displayed as fusion to phage pIII
# notes: as for B2
# B13: Phage-2987 (peptide)
# peptide: LLVRCQPEWMCVGF
# notes: as for B1
# B14: Phage-2988 (peptide)
# peptide: FTAYCKPAWMCQGL
# notes: as for B1
# B15: Phage-2991 (peptide)
# peptide: FHVRCVPEWMCWGF
# B16: Phage-2963 (peptide)
# peptide: NLPLCKPAWMCKWL
# modifications: cysteine pairing not given here; also: peptide displayed as fusion to phage pIII
# notes: as for B2
# B17: Phage-2982 (peptide)
# peptide: PMHACIPMWMCAGF
# notes: as for B1
# B18: Phage-2981 (peptide)
# peptide: DDRMCIPSWMCSGL
# notes: as for B1
# B19: Phage-2978 (peptide)
# peptide: FGYACIPNWMCTVF
# notes: as for B1
# B20: Phage-2964 (peptide)
# peptide: PGPLCVPEWMCIGF
# modifications: cysteine pairing not given here; also: peptide displayed as fusion to phage pIII
# notes: as for B2
# B21: Phage-2993 (peptide)
# peptide: LAHMCIPAWMCAGL
# modifications: cysteine pairing not given here; also: peptide displayed as fusion to phage pIII
# B22: Phage-2969 (peptide)
# peptide: LDIWCVPAWMCHGF
# modifications: cysteine pairing not given here; also: peptide displayed as fusion to phage pIII
# notes: as for B2
# B23: Phage-2966 (peptide)
# peptide: QTPVCIPEWMCTGF
# modifications: cysteine pairing not given here; also: peptide displayed as fusion to phage pIII
# notes: as for B2
# B24: Phage-2974 (peptide)
# peptide: VGAACIPDWMCVGF
# modifications: cysteine pairing not given here; also: peptide displayed as fusion to phage pIII
# notes: as for B2
# B25: Phage-2990 (peptide)
# peptide: TTIMCEPTWMCTGF
# modifications: cysteine pairing not given here; also: peptide displayed as fusion to phage pIII
# B26: Phage-2976 (peptide)
# peptide: FEMLCKPAWMCSGF
# notes: as for B1
# B27: Phage-2984 (peptide)
# peptide: AGIRCVPEWMCLGF
# notes: as for B1
# B28: Phage-2986 (peptide)
# peptide: SQPMCIPVWMCRGF
# notes: as for B1
# B29: Phage-2972 (peptide)
# peptide: GDVYCKPAWMCDGF
# modifications: cysteine pairing not given here; also: peptide displayed as fusion to phage pIII
# notes: as for B2
# B30: Phage-2983 (peptide)
# peptide: PERMCRPLWMCEGF
# notes: as for B1
# B31: Phage-2968 (peptide)
# peptide: WEAMCQPLWMCTGF
# modifications: cysteine pairing not given here; also: peptide displayed as fusion to phage pIII
# notes: as for B2
# B32: Phage-2970 (peptide)
# peptide: VYPLCKPSWMCSGL
# modifications: cysteine pairing not given here; also: peptide displayed as fusion to phage pIII
# notes: as for B2
# Assays:
# [1] = molecular target: T1, Anti-PSMA Fab (biotinylated (site not stated)); experiment: phage ELISA; biotinylated anti-PSMA Fab on neutravidin plate, anti-M13-HRP detection, no PSMA antigen
# T1 construct: The biotinylated PSMA Fab was captured on neutravidin coated plates for the phage ELISA; also called 006 PSMA Fab
# [2] = molecular target: T1, Anti-PSMA Fab; experiment: phage ELISA; captured anti-PSMA Fab pre-incubated with PSMA antigen as competitor
# Protocol: (§1) Clonal phage were harvested as crude supernatants and screened via standard ELISAs. […] Prior to the addition of clonal phage. wells were incubated with blocking buffer and PSMA antigen or blocking buffer alone. Without washing or aspirating, clonal phage supernatants were then added to the wells and incubated for a short time. Wells were then washed followed by detection of bound phage using a horse radish conjugated anti-M13 antibody.
# [3] = molecular target: T2, PSMA Fab (biotinylated (site not stated)); experiment: phage ELISA, biotinylated anti-PSMA Fab on neutravidin plate, anti-M13 HRP detection
# T2 construct: Biotinylated PSMA Fab captured on neutravidin coated plates in the phage ELISA; also called Anti-PSMA Fab; 006 PSMA Fab
# [4] = molecular target: T2, PSMA Fab; experiment: phage ELISA, captured anti-PSMA Fab pre-incubated with PSMA antigen as competitor, anti-M13 HRP detection
# Protocol: as §1
# [5] = molecular target: T3, PSMA Fab (biotinylated (site not stated)); experiment: phage ELISA; biotinylated PSMA Fab on neutravidin plate, clonal phage supernatant, anti-M13 HRP detection;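 note: wells preincubated with PSMA antigen in blocking buffer or with blocking buffer only before clonal phage were added for a short incubation, then bound phage detected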
# T3 construct: also called Anti-PSMA Fab; 006 PSMA Fab
# [6] = molecular target: T3, PSMA Fab; experiment: phage ELISA; PSMA Fab on plate pre-incubated with PSMA antigen as competitor, anti-M13 HRP detection;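 note: crude clonal phage supernatants added to Fab-coated wells still holding PSMA antigen in blocking buffer, with bound phage as read-out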
# Protocol: as §1
Binder,"Phage binding ELISA signal, Anti-PSMA Fab [1]","Phage binding ELISA signal, Anti-PSMA Fab with PSMA antigen [2]","Phage binding ELISA signal, Anti-PSMA Fab [3]","Phage binding ELISA signal, Anti-PSMA Fab in presence of PSMA antigen [4]",other results
B1,2.24,0.0893,,,
B2,,,2.26,0.106,
B3,,,2.26,0.0804,
B4,,,,,"Phage binding ELISA signal, Anti-PSMA Fab [5]: 2.22; phage binding ELISA signal (Anti-PSMA Fab, PSMA antigen present) [6]: 0.0735"
B5,2.22,0.083,,,
B6,2.24,0.0676,,,
B7,2.23,0.0871,,,
B8,2.24,0.125,,,
B9,,,2.25,0.0617,
B10,,,2.25,0.108,
B11,,,2.26,0.102,
B12,,,2.24,0.073,
B13,2.23,0.14,,,
B14,2.22,0.0917,,,
B15,,,,,"Phage binding ELISA signal, Anti-PSMA Fab [5]: 2.22; phage binding ELISA signal (Anti-PSMA Fab, PSMA antigen present) [6]: 0.153"
B16,,,2.26,0.125,

Binder,"Phage binding ELISA signal, Anti-PSMA Fab [1]","Phage binding ELISA signal, Anti-PSMA Fab with PSMA antigen [2]","Phage binding ELISA signal, Anti-PSMA Fab [3]","Phage binding ELISA signal, Anti-PSMA Fab in presence of PSMA antigen [4]",other results
B17,2.23,0.114,,,
B18,2.24,0.0851,,,
B19,2.24,0.122,,,
B20,,,2.26,0.114,
B21,,,,,"Phage binding ELISA signal, Anti-PSMA Fab [5]: 2.22; phage binding ELISA signal (Anti-PSMA Fab, PSMA antigen present) [6]: 0.104"
B22,,,2.26,0.0712,
B23,,,2.26,0.091,
B24,,,2.25,0.0732,
B25,,,,,"Phage binding ELISA signal, Anti-PSMA Fab [5]: 2.22; phage binding ELISA signal (Anti-PSMA Fab, PSMA antigen present) [6]: 0.0683"
B26,2.24,0.0857,,,
B27,2.23,0.0784,,,
B28,2.23,0.109,,,
B29,,,2.25,0.0762,
B30,2.23,0.11,,,
B31,,,2.26,0.0968,
B32,,,2.26,0.0843,
